Measured values published in US20240301076A1 (CEPHALON, published 2024).

Tests used:
human CXCR2 [1] = biological target: T1, human CXCR2 (human, UniProt P25025 1-360); assay: cell-based or functional assay
T1 sequence: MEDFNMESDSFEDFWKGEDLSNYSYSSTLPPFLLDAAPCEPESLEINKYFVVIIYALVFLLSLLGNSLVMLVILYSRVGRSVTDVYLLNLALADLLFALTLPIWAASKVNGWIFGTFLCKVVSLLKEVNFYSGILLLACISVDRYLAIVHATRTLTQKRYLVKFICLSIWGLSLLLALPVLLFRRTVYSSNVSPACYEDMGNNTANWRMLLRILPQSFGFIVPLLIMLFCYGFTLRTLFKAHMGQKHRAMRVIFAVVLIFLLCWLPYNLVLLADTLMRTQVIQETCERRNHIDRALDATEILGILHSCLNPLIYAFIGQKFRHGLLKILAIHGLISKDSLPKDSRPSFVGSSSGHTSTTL

human CXCR2 [2] = biological target: T1, human CXCR2; assay: cell-based or functional assay; remark: listed apart in the source
human CXCR2 [3] = biological target: T1, human CXCR2; assay: cell-based or functional assay; remark: listed apart in the source
human CXCR2 [4] = biological target: T1, human CXCR2; assay: cell-based or functional assay; remark: listed apart in the source
human CXCR2 [5] = biological target: T1, human CXCR2; assay: flow cytometry, CXCR2-transfected Expi293F cells
Description: Harvested cells were resuspended in FACS buffer (1×PBS+0.5% (w/v) bovine serum albumin (BSA)+2 mM EDTA pH 7.2). Approximately 2×10⁵ cells were added per well in a 96-well round-bottomed plate. Cells were pelleted by centrifugation at 400 g for 5 mins at 4° C. and supernatants discarded. 25 μL of each test antibody or control antibody was added to the cells and incubated for 30 minutes at 4° C. Cells were washed twice in 100 μL FACS buffer followed by centrifugation at 400 g for 5 mins at 4° C.
For detection, 50 μL of secondary antibody (Table 2) was added to relevant samples. Commercially available antibodies that bound to transfected CXCR family members were used as positive controls to ensure that the cells were expressing the receptors. Cells were washed twice in 200 μL of FACS buffer followed by centrifugation at 400 g for 5 mins at 4° C. Before sample acquisition, cells were resuspended in 100 μL of FACS buffer. Samples were acquired using the high throughput sampler on a FACSCanto™ II cytometer (Beckton-Dickinson).
A further six heavy chain combinational variants comprising four or more amino acid substitutions were produced as provided in Table 12. […] Each heavy chain was co-expressed with light chain c (SEQ ID NO:110) to produce an antibody variant. Antibodies were purified and tested for CXCR2 binding activity as described in General Methods.

human CXCR2 [6] = biological target: T1, human CXCR2; assay: cell-based or functional assay; remark: listed apart in the source

- CXCL1 IC50, calcium flux (human CXCR2 [1]): 1.47 nM
- IC50 mean, Hu CXCL1, Tango β-arrestin (human CXCR2 [2]): 0.27 nM
- IC50 mean, Hu CXCL2, Tango β-arrestin (human CXCR2 [2]): 0.36 nM
- IC50 mean, Hu CXCL3, Tango β-arrestin (human CXCR2 [2]): 0.39 nM
- IC50 mean, Hu CXCL5, Tango β-arrestin (human CXCR2 [2]): 0.3 nM
- IC50 mean, Hu CXCL6, Tango β-arrestin (human CXCR2 [2]): 0.28 nM
- IC50 mean, Hu CXCL7, Tango β-arrestin (human CXCR2 [2]): 0.44 nM
- IC50 mean, Hu CXCL8, Tango β-arrestin (human CXCR2 [2]): 0.34 nM
- IC50 mean, Hu CXCL1, calcium flux (human CXCR2 [3]): 1.55 nM
- IC50 mean, Hu CXCL2, calcium flux (human CXCR2 [3]): 1.62 nM
- IC50 mean, Hu CXCL3, calcium flux (human CXCR2 [3]): 0.63 nM
- IC50 mean, Hu CXCL5, calcium flux (human CXCR2 [3]): 1.03 nM
- IC50 mean, Hu CXCL6, calcium flux (human CXCR2 [3]): 1.71 nM
- IC50 mean, Hu CXCL7, calcium flux (human CXCR2 [3]): 2.14 nM
- CXCL1 IC50, β-arrestin recruitment (human CXCR2 [4]): 0.38 nM
- CXCL5 IC50, β-arrestin recruitment (human CXCR2 [4]): 0.34 nM
- CXCL8 IC50, β-arrestin recruitment (human CXCR2 [4]): 0.34 nM
- EC50 (human CXCR2 [5]): 3.05 nM
- Max binding (MFI Percent of 4A8 WT) (human CXCR2 [5]): 89%
- Max binding (MFI) (human CXCR2 [5]): 55000 MFI
- CXCL1 Fold Improvement over 4A8 WT (human CXCR2 [6]): 1.49 fold
- CXCL1 IC50, Tango assay (human CXCR2 [6]): 0.63 nM
- CXCL8 Fold Improvement over 4A8 WT (human CXCR2 [6]): 2.39 fold
- CXCL8 IC50, Tango assay (human CXCR2 [6]): 0.28 nM
B1: BKO-4A8-101c (antibody, human IgG4 S228P, lambda, V domains shown)
VH: EVQLLESGGGLVQPGGSLRLSCAASGFTFSSSTQSWVRQPPGKGLEWVSAISGRGRSTYYADSVKGRFTISRDNSKNTLYLQMNSLRAEDTAVYYCAIQAGYWGQGILVTVSS
VL: QSALTQPPSASGSPGQSVTISCIGTSSDVGGYNYVSWYQQHPGKAPKLMIYEVSKRPSGVPDRFSGSKSGNTASLTVSGLQAEDEADYYCSSYAGSNNFGVFGGGTKLTVLG
